Measurements as given in publication PMC2171815.

Target: Cog3p (subunit 3 of the conserved oligomeric Golgi (COG) complex) (rat (endogenous in rat liver Golgi))
Experiment: co-IP

B1: GS28 (intra-Golgi v-SNARE) (natural protein)
chain: MAAGTSNYWEDLRKQARQLENELDLKLVSFSKLCTSYSHSSARDGGRDRYSSDTTPLLNGSSQDRMFETMAIEIEQLLARLTGVNDKMAEYTHSAGVPSLNAALMHTLQRHRDILQDYTHEFHKTKANFMAIRERENLMGSVRKDIESYKSGSGVNNRRTELFLKEHDHLRNSDRLIEETISIAMATKENMTSQRGMLKSIHSKMNTLANRFPAVNSLIQRINLRKRRDSLILGGVIGICTILLLLYAFH
B1 gave a percent of total co-precipitated of 5%.
